We go through two molecules from patent WO2014208760A1 (dated 2014).

The target of test [1] is T1, Control peptide.
T1 construct: Coated on the ELISA plate at 10 ug/mL
T1 peptide: MNAANVGWNGSTFA
As to the kind of experiment: ELISA, peptide coated at 10 ug/mL, done as for ESM-8.

For the next test, the target named is T2, 67LR 161-170 peptide.
T2 construct: Synthetic peptide coated on the ELISA plate at 10 ug/mL; also called ESM peptide; EGCG sensing motif (ESM)
T2 peptide: IPCNNKGAHS
Nature of the test: ELISA of hybridoma culture supernatant on coated 67LR 161-170 peptide.

In test [2] the target is 67 kDa laminin receptor protein (human, UniProt P08865 2-295). Nature of the test: cell-based or functional assay.
The target of test [3] is T1, Control peptide. Nature of the test: ELISA, peptide coated at 10 ug/mL, HRP anti-mouse IgG, absorbance at 405 nm.

B1: ESM-16 antibody (ESM-16 monoclonal antibody) (antibody, V domains shown)
VH: EVMLVESGGGLVKPGGSLKLSCAASGFTFSSYAMSWVRQTPEKRLEWVATISSGGSYTYYPDSVKGRFTISRDNAKNTLYLQMSSLRSEDTAMYYCARNWDLDYWGQGTTLTVSS
VL: DIVMTQSPATLSVTPGDRVSLSCRASQSISDYLHWYQQKSHESPRLLIKYASQSISGIPSRFSGSGSGSDFTLSINSVEPEDVGVYYCQNGHSFPYTFGGGTKLEIK
notes: Mouse hybridoma antibody; in flow cytometry it was detected with goat anti-mouse IgM and compared with Isotype Control mIgM, which points to IgM; also called monoclonal antibody ESM-16; EMS-16 antibody
For B1, the binding result is on record as “no binding” in the test with Control peptide [1] and “binds” with 67LR 161-170 peptide.

B2: ESM-8 antibody (ESM-8 monoclonal antibody) (antibody, V domains shown)
VH: QVQLKQSGPGLVQPSQSLSITCTVSGFSLTTYGVHWVRQSPGKGLEWLGVIWSGGNTDYNAAFMSRLSISKDNSKSQVFFKMNSLRTTDTAIYYCARNSLLLPFDVWGAGTTVTVSS
VL: DVVMTQTPLSLPVSLGDQASISCRSSQSLVHSNGYTYLHWYLQKPGQSPKLLIYKVSNRFSGVPDRFSGSASGTDFTLKISRVEAEDLGVYFCSQSTHVPWTFGGGTKLEIK
notes: it was detected with anti-mouse IgG and compared with Control mIgG; also called monoclonal antibody ESM-8; EMS-8 antibody
For the molecule B2, the “acidic sphingomyelinase activity in HL60 cells (TLC of BODIPY-C12-sphingomyelin), relative to Control mIgG” value in test [2] is ~3 times. The binding result is reported as “binds” with 67LR 161-170 peptide and “no binding” with Control peptide [3].
